In the RNAGym collection of RNA variant scans (doi:10.1021/acssynbio.7b00057):

B1: Pistol ribozyme (parent)
chain: GGGUCGUUGUUCCAUAAUCGCGUGGAUAUGGCACGCAAGUUUCUACCGGGCACCGUAAAUGUCCGACUGGAGCCGUUCGGGCGGCUAUAAACAGACCUCAGGCCCGAAGCGUGGCGGCACCUGCCGCCGGUGGUAAAAAAGAUCGGAAGAGCACACGUCU

Variants of: B1
Test: aptazyme ON/OFF ratio, guanine; higher = stronger switching; co-transcriptional cleavage with and without guanine

Variant	aptazyme ON/OFF ratio
GGGUCGGUGACAUAUAAUCGCGUGGAUAUGGCACGCAAGUUUCUACCGGGCACCGUAAAUGUCCGACUGGAGCCGUUCGGGCGGCUAUAAACAGACCUCAGGCCCGAAGCGUGGCGGCACCUGCCGCCGGUGGUAAAAAAGAUCGGAAGAGCACACGUCU [U7G U10A U11C C12A C13U]	1.18
GGGUCGGUGACAAAUAAUCGCGUGGAUAUGGCACGCAAGUUUCUACCGGGCACCGUAAAUGUCCGACUGGAGCCGUUCGGGCGGCUAUAAACAGACCUCAGGCCCGAAGCGUGGCGGCACCUGCCGCCGGUGGUAAAAAAGAUCGGAAGAGCACACGUCU [U7G U10A U11C C12A C13A]	1.12
GGGUCGGUGACAGAUAAUCGCGUGGAUAUGGCACGCAAGUUUCUACCGGGCACCGUAAAUGUCCGACUGGAGCCGUUCGGGCGGCUAUAAACAGACCUCAGGCCCGAAGCGUGGCGGCACCUGCCGCCGGUGGUAAAAAAGAUCGGAAGAGCACACGUCU [U7G U10A U11C C12A C13G]	1.2
GGGUCGGUGACCGAUAAUCGCGUGGAUAUGGCACGCAAGUUUCUACCGGGCACCGUAAAUGUCCGACUGGAGCCGUUCGGGCGGCUAUAAACAGACCUCAGGCCCGAAGCGUGGCGGCACCUGCCGCCGGUGGUAAAAAAGAUCGGAAGAGCACACGUCU [U7G U10A U11C C13G]	1.02
GGGUCGGUGACCUAUAAUCGCGUGGAUAUGGCACGCAAGUUUCUACCGGGCACCGUAAAUGUCCGACUGGAGCCGUUCGGGCGGCUAUAAACAGACCUCAGGCCCGAAGCGUGGCGGCACCUGCCGCCGGUGGUAAAAAAGAUCGGAAGAGCACACGUCU [U7G U10A U11C C13U]	1.02
GGGUCGGUGACCAAUAAUCGCGUGGAUAUGGCACGCAAGUUUCUACCGGGCACCGUAAAUGUCCGACUGGAGCCGUUCGGGCGGCUAUAAACAGACCUCAGGCCCGAAGCGUGGCGGCACCUGCCGCCGGUGGUAAAAAAGAUCGGAAGAGCACACGUCU [U7G U10A U11C C13A]	1.04
GGGUCGGUGAAGAAUAAUCGCGUGGAUAUGGCACGCAAGUUUCUACCGGGCACCGUAAAUGUCCGACUGGAGCCGUUCGGGCGGCUAUAAACAGACCUCAGGCCCGAAGCGUGGCGGCACCUGCCGCCGGUGGUAAAAAAGAUCGGAAGAGCACACGUCU [U7G U10A U11A C12G C13A]	1.05
GGGUCGGUGAAGUAUAAUCGCGUGGAUAUGGCACGCAAGUUUCUACCGGGCACCGUAAAUGUCCGACUGGAGCCGUUCGGGCGGCUAUAAACAGACCUCAGGCCCGAAGCGUGGCGGCACCUGCCGCCGGUGGUAAAAAAGAUCGGAAGAGCACACGUCU [U7G U10A U11A C12G C13U]	1.16
GGGUCGGUGAAGGAUAAUCGCGUGGAUAUGGCACGCAAGUUUCUACCGGGCACCGUAAAUGUCCGACUGGAGCCGUUCGGGCGGCUAUAAACAGACCUCAGGCCCGAAGCGUGGCGGCACCUGCCGCCGGUGGUAAAAAAGAUCGGAAGAGCACACGUCU [U7G U10A U11A C12G C13G]	1.16
GGGUCGGUGACUGAUAAUCGCGUGGAUAUGGCACGCAAGUUUCUACCGGGCACCGUAAAUGUCCGACUGGAGCCGUUCGGGCGGCUAUAAACAGACCUCAGGCCCGAAGCGUGGCGGCACCUGCCGCCGGUGGUAAAAAAGAUCGGAAGAGCACACGUCU [U7G U10A U11C C12U C13G]	1.05
GGGUCGGUGACUAAUAAUCGCGUGGAUAUGGCACGCAAGUUUCUACCGGGCACCGUAAAUGUCCGACUGGAGCCGUUCGGGCGGCUAUAAACAGACCUCAGGCCCGAAGCGUGGCGGCACCUGCCGCCGGUGGUAAAAAAGAUCGGAAGAGCACACGUCU [U7G U10A U11C C12U C13A]	1.12
GGGUCGGUGACUUAUAAUCGCGUGGAUAUGGCACGCAAGUUUCUACCGGGCACCGUAAAUGUCCGACUGGAGCCGUUCGGGCGGCUAUAAACAGACCUCAGGCCCGAAGCGUGGCGGCACCUGCCGCCGGUGGUAAAAAAGAUCGGAAGAGCACACGUCU [U7G U10A U11C C12U C13U]	1.08
GGGUCGGUGACGGAUAAUCGCGUGGAUAUGGCACGCAAGUUUCUACCGGGCACCGUAAAUGUCCGACUGGAGCCGUUCGGGCGGCUAUAAACAGACCUCAGGCCCGAAGCGUGGCGGCACCUGCCGCCGGUGGUAAAAAAGAUCGGAAGAGCACACGUCU [U7G U10A U11C C12G C13G]	1.03
GGGUCGGUGACGUAUAAUCGCGUGGAUAUGGCACGCAAGUUUCUACCGGGCACCGUAAAUGUCCGACUGGAGCCGUUCGGGCGGCUAUAAACAGACCUCAGGCCCGAAGCGUGGCGGCACCUGCCGCCGGUGGUAAAAAAGAUCGGAAGAGCACACGUCU [U7G U10A U11C C12G C13U]	1.11
GGGUCGGUGACGAAUAAUCGCGUGGAUAUGGCACGCAAGUUUCUACCGGGCACCGUAAAUGUCCGACUGGAGCCGUUCGGGCGGCUAUAAACAGACCUCAGGCCCGAAGCGUGGCGGCACCUGCCGCCGGUGGUAAAAAAGAUCGGAAGAGCACACGUCU [U7G U10A U11C C12G C13A]	1.1
GGGUCGGUGACGCAUAAUCGCGUGGAUAUGGCACGCAAGUUUCUACCGGGCACCGUAAAUGUCCGACUGGAGCCGUUCGGGCGGCUAUAAACAGACCUCAGGCCCGAAGCGUGGCGGCACCUGCCGCCGGUGGUAAAAAAGAUCGGAAGAGCACACGUCU [U7G U10A U11C C12G]	1.3
GGGUCGGUGACACAUAAUCGCGUGGAUAUGGCACGCAAGUUUCUACCGGGCACCGUAAAUGUCCGACUGGAGCCGUUCGGGCGGCUAUAAACAGACCUCAGGCCCGAAGCGUGGCGGCACCUGCCGCCGGUGGUAAAAAAGAUCGGAAGAGCACACGUCU [U7G U10A U11C C12A]	1.16
GGGUCGGUGACUCAUAAUCGCGUGGAUAUGGCACGCAAGUUUCUACCGGGCACCGUAAAUGUCCGACUGGAGCCGUUCGGGCGGCUAUAAACAGACCUCAGGCCCGAAGCGUGGCGGCACCUGCCGCCGGUGGUAAAAAAGAUCGGAAGAGCACACGUCU [U7G U10A U11C C12U]	1.05
